Assay [1] deals with B7-1 (Homo sapiens) (UniProt P33681). To be noted: cited from earlier work.
Assay [2] deals with B7-1 (Mus musculus) (UniProt Q00609). To be noted: cited from earlier work.
Assay [3] has as its target mPD-1 mIgG2a (UniProt Q02242). The experiment in a line: FACS titration. To be noted: cells expressing PD-L1 titrated with recombinant PD-1 Fc-fusion; anti-mouse Alexa 488 secondary; single-site binding model.
For assay [4], the target named is mB7-1 mIgG2a (UniProt Q00609). The assay is described as follows: FACS titration. The conditions noted are these: cells expressing PD-L1 titrated with recombinant B7-1 Fc-fusion; anti-mouse Alexa 488 secondary; single-site binding model.

As usually defined, the Kd is the free concentration of one partner at which half of the binding sites on the other are occupied at equilibrium, for simple one-to-one binding.

PD-L1, sequence (Q9EP73 19-239): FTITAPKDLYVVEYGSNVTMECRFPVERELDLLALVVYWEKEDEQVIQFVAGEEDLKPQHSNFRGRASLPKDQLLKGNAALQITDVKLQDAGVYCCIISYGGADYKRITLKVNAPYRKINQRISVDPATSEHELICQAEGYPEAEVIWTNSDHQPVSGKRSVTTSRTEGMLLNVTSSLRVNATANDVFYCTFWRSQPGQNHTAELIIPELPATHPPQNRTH
B7-1, sequence (P33681 35-242): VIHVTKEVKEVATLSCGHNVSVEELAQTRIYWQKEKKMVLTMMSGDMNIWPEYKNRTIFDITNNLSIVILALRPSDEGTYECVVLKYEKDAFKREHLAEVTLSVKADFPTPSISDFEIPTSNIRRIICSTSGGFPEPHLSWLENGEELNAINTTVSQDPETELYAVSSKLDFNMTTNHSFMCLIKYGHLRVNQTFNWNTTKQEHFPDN

As to B7-1 (from UniProt P33681), the Kd in assay [1] was 35 µM.

Consider PD-L1 (from UniProt Q9EP73), for which the Kd in assay [2] was 1.6 µM.

Regarding “WT mPD-L1 mCherry (from UniProt Q9EP73) D28R”, the other: Bmax in assay [3] was 93.4; in assay [4], 73.1.

The values above are taken from article PMC7272049.
